The source of these data is publication doi:10.1101/524447.

The target of this assay is Integrin β3 cytoplasmic tail peptide (human (from the printed UniProt ID)). As to the kind of experiment: SPR.
By Kd is commonly meant a measure of binding affinity in units of concentration. A high value points to a looser complex. On to “Syk C-terminal SH2 domain with the IA segment (IA-C-SH2) (domain or fragment)”, for which the Kd stood at 25 µM. Regarding “Syk N-terminal SH2 domain alone (N-SH2) (domain or fragment)”, the Kd was determined as 130 µM. The same measure for “Syk N-terminal SH2 domain with the IA segment (N-SH2+IA) (domain or fragment)”: 8 µM; for “Syk tandem SH2 (tSH2) fragment, amino acids 9-264 (from UniProt P43405 9-264) (domain or fragment)”: 3 µM.
